Experimental findings from patent US11965032 (TG THERAPEUTICS, dated 2024) are described below.

Experiment [1] has as its target T1, CD20 on Jeko-1, Raji and Daudi cells (human, UniProt P11836 1-297).
T1 construct: whole, on cells; also called cell surface CD20
T1 sequence (looked up): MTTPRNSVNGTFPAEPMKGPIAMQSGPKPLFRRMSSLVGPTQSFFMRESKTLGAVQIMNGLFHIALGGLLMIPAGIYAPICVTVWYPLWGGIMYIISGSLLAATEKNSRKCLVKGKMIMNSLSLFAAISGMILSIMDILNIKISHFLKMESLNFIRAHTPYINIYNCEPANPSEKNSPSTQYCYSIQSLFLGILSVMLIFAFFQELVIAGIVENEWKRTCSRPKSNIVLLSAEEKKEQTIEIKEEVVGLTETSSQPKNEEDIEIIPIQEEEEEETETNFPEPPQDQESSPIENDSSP
Nature of the experiment: flow cytometry (FACS) on Raji cells, PE conjugated anti-human secondary antibody. Here is the method:
(§1) A six-point dilution series of the samples, in duplicates and in the concentration range of 40 μg/ml-0 ug/ml with a dilution factor of 5 were used. Cells were incubated with sample dilutions; binding was detected using a PE conjugated anti-human secondary antibody.
On the technique in general: A flow cytometer gives signals particle by particle.

In experiment [2] the target is T2, HRP conjugated human C1q (human, UniProt P02745 23-245; P02746 28-253; P02747 29-245, peroxidase (HRP) conjugated; site not stated).
T2 construct: also called Peroxidase conjugated C1q
The experiment can be described thus: ELISA, antibody coated on the plate, HRP conjugated human C1q. Here is the method:
(§2) The C1q binding assay used for this analysis is an ELISA assay. Samples were coated on ELISA plates, HRP conjugated human C1q is incubated with samples on the plate. The bound HRP, in the presence of substrate TMB, generates a colorimetric signal. […] Sample dilutions are coated onto ELISA plates, and the plates incubated for 1 hour±30 min at room temperature. After coating, the plates are washed, blocked, and washed again. Peroxidase conjugated C1q was added, and the plates incubated for 1.5 hours±30 minutes at room temperature. After incubation and washing, a tetramethylbenzidine (TMB) substrate solution was added and plates incubated at room temperature for 7 minutes (~1 min/+30 seconds). This produces a colorimetric reaction which is proportional to the level of C1q bound. The reaction is stopped with the addition of 1M sulfuric acid and the color is measured at 450 nm using a Molecular Devices SPECTRAMAX® microplate reader. SOFTMAX® PRO is used to analyze the data with weighted nonlinear regression using a 4-parameter logistic fit. […] EC50 of each test sample, based on the 4-parameter logistic fitted curve, were generated for additional information.

Experiment [3] concerns the target T1, CD20 on Jeko-1, Raji and Daudi cells. Nature of the experiment: flow cytometry (FACS) on Daudi cells, PE conjugated anti-human secondary antibody; Daudi cells. How it is done:
as §1

Experiment [4] has as its target T3, FcγRIIIa 158V receptor (SPR assay) (UniProt P08637 17-208, limits assumed).
T3 construct: Immobilised on the SPR chip by amine coupling; The 158V allotype uses mature numbering
Nature of the experiment: SPR, receptor amine-coupled to the chip, antibody injected, 1:1 kinetics; average of 4 values. How it is done: (§3) The method follows a direct binding assay methodology where the FcγRIIIa receptor is directly immobilized onto the flow cell on a sensor chip surface and samples are injected over the chip to assess binding. […] Independent duplicates of sample dilutions are injected over the chip, followed by surface regeneration between each cycle. The binding is measured in response units (RU). The kinetics of the binding reaction is determined by measuring changes in SPR due to the increase in mass in the close proximity to the biosensor chip surface. Change in the mass of the complex as a function of time is visualized as a sensorgram.
(§4) The equilibrium dissociation constants (K_D) of each sample is determined for each receptor.

In experiment [5] the target is T4, FcγIIIA Receptor on the effector cells (human, UniProt P08637 17-254). The experiment can be described thus: cell-based or functional assay.
The target of experiment [6] is T5, FcγRIIIa 158F receptor (SPR assay) (UniProt P08637 17-208, limits assumed).
T5 construct: Immobilised on the SPR chip by amine coupling
Nature of the experiment: SPR, receptor amine-coupled to the chip, antibody injected, steady state affinity; average of 4 values. How it is done: as §3, §4
In general terms: Surface plasmon resonance follows binding to a sensor surface in real time, without labels.

Experiment [7] has as its target T1, CD20 on Jeko-1, Raji and Daudi cells. The experiment can be described thus: cell-based MSD electrochemiluminescence binding assay on CD20 expressing Jeko-1 cells.
Experiment [8] addresses T6, FcγRIIIA V158 (human Fc receptor panel, Octet) (human, UniProt P08637 17-208).
T6 construct: Captured on anti-penta-His biosensors, so it carries a His tag; It is kept apart from the SPR receptor because the constructs may differ; also called FcγRIIIa 158V
Nature of the experiment: BLI (Octet HTX), receptor on anti-penta-His biosensor, 1:1 model. Here is the method: (§5) This analysis was performed by LakePharma. Binding characterization were carried out on Octet HTX instrument at 25° C. Human Fc receptor panel were loaded onto Anti-Penta His (H1S1K) biosensors. Loaded sensors were dipped into a serial dilutions of the testing samples (300 nM start, 1:3 dilution, 7 points). Kinetic constants were calculated using a monovalent (1:1) binding model.

The target in experiment [9] is T7, FcγRIIIA F158 (human Fc receptor panel, Octet) (human, UniProt P08637 17-208).
T7 construct: Captured on anti-penta-His biosensors, so it carries a His tag; It is kept apart from the SPR receptor because the constructs may differ
Described as above. Here is the method: as §5

For experiment [10], the target named is T8, FcRn (human Fc receptor panel, Octet) (human, UniProt P55899 24-297; P61769 21-119).
T8 construct: Captured on anti-penta-His biosensors, so it carries a His tag
Described as above. How it is done:
as §5

Experiment [11] concerns the target T9, FcγRI (human Fc receptor panel, Octet) (human, UniProt P12314 16-288, limits assumed).
T9 construct: Captured on anti-penta-His biosensors, so it carries a His tag
The description is as above. Here is the method:
as §5

Experiment [12] has as its target T10, FcγRIIIB (human Fc receptor panel, Octet) (human, UniProt O75015 17-200).
T10 construct: Captured on anti-penta-His biosensors, so it carries a His tag
The description is as above. How it is done:
as §5

Experiment [13] concerns the target T11, FcγRIIA (human Fc receptor panel, Octet) (human, UniProt P12318 36-218, limits assumed).
T11 construct: Captured on anti-penta-His biosensors, so it carries a His tag
T11 sequence (looked up): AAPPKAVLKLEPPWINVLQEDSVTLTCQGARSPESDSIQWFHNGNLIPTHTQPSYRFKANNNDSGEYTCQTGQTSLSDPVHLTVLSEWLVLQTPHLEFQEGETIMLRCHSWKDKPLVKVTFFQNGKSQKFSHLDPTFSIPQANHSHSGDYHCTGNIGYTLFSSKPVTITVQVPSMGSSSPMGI
Described as above. Here is the method: as §5

For experiment [14], the target named is T12, FcγRIIB/C (human Fc receptor panel, Octet) (human, UniProt P31994 46-217, limits assumed).
T12 construct: Captured on anti-penta-His biosensors, so it carries a His tag
T12 sequence (looked up): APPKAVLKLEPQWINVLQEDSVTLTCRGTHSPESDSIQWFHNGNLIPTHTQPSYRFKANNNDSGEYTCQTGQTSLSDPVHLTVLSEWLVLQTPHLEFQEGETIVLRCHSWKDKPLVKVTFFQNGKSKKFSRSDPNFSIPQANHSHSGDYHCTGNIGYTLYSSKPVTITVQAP
Described as above. Here is the method:
as §5

For experiment [15], the target named is T4, FcγIIIA Receptor on the effector cells. Nature of the experiment: cell-based or functional assay. The source holds these as a separate data set.
The target in experiment [16] is T5, FcγRIIIa 158F receptor (SPR assay). Nature of the experiment: SPR, receptor immobilised. How it is done: as §3, §4
In experiment [17] the target is T3, FcγRIIIa 158V receptor (SPR assay). The experiment can be described thus: SPR, receptor immobilised. Here is the method: as §3, §4
Experiment [18] has as its target T2, HRP conjugated human C1q. Nature of the experiment: ELISA: antibody dilutions coated on the plate, HRP conjugated human C1q added, TMB, OD 450. Here is the method: as §2
Experiment [19] has as its target T4, FcγIIIA Receptor on the effector cells. The experiment can be described thus: cell-based or functional assay. The source holds these as a separate data set.
For experiment [20], the target named is C1q in the complement system (rabbit serum as the source of complement) (rabbit). Nature of the experiment: cell-based or functional assay.

T4 sequence (P08637 17-254): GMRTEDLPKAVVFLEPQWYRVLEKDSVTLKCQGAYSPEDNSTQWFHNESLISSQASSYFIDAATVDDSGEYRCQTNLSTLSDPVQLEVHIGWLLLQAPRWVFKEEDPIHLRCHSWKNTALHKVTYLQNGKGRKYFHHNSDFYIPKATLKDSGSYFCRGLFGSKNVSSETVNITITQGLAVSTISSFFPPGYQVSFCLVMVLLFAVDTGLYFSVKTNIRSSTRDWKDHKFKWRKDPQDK
T3 sequence (P08637 17-208 F176V limits assumed): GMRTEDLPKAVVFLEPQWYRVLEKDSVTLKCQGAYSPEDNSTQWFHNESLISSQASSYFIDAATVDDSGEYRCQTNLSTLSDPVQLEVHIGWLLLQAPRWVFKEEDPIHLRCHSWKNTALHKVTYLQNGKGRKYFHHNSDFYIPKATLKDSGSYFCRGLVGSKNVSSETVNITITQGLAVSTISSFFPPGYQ
T2 sequence (P02745 23-245 limits assumed, chain 1 of 3): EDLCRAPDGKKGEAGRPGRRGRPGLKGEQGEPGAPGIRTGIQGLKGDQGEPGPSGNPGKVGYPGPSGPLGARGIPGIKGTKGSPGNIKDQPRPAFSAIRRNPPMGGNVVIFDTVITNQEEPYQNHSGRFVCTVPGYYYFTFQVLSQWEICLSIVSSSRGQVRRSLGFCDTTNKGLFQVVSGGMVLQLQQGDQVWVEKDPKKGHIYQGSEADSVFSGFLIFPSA
T2 sequence (P02746 28-253 limits assumed, chain 2 of 3): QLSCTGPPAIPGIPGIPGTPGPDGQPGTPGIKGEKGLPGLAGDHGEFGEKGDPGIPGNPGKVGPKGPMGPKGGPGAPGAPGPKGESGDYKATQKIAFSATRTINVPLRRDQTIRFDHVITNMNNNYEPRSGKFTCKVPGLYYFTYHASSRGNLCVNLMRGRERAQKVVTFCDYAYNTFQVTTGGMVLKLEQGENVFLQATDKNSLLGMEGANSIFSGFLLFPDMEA
T2 sequence (P02747 29-245 limits assumed, chain 3 of 3): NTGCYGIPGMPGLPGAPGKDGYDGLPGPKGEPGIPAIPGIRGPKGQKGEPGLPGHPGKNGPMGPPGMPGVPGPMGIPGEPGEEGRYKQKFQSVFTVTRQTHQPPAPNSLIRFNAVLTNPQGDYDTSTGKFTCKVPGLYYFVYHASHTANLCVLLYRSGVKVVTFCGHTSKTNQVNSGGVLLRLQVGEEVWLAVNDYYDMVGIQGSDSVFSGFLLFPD
T5 sequence (P08637 17-208 limits assumed): as the sequence (P08637 17-208 F176V limits assumed) above, with V160F counted along it
T6 sequence (P08637 17-208 F176V limits assumed): as the sequence (P08637 17-208 F176V limits assumed) above
T8 sequence (P55899 24-297 limits assumed, chain 1 of 2): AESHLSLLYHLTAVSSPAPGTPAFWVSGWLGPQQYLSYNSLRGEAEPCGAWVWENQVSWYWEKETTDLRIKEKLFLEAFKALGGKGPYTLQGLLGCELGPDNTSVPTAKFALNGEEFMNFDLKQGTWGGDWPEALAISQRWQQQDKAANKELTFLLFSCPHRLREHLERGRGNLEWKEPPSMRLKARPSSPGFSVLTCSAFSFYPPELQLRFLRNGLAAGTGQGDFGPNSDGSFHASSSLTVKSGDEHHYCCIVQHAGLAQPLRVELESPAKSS
T8 sequence (P61769 21-119 limits assumed, chain 2 of 2): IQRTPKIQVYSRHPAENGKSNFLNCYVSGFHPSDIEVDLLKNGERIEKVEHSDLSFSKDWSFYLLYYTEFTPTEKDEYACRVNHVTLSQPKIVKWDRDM
T7 sequence (P08637 17-208 limits assumed): as the sequence (P08637 17-208 F176V limits assumed) above, with V160F counted along it
T10 sequence (O75015 17-200 limits assumed): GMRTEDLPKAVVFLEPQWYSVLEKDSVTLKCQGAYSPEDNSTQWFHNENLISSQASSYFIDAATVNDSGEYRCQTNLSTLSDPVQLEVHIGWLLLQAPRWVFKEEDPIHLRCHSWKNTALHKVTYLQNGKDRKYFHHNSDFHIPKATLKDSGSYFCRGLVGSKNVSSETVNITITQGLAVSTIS
T9 sequence (P12314 16-288 limits assumed): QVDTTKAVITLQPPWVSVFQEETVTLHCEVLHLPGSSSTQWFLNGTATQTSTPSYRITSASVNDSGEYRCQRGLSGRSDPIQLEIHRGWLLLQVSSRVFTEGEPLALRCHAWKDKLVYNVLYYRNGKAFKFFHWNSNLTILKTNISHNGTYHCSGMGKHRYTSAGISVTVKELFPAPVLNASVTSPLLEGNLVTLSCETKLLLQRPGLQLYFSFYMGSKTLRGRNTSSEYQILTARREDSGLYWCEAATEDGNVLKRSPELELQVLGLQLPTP

B1: TG-1101 (TG Therapeutics, Inc.) (antibody, human IgG1, kappa)
heavy: not shown
light: QIVLSQSPAILSASPGEKVTMTCRASSSVSYMHWYQQKPGSSPKPWIYATSNLASGVPARFSGSGSGTSYSFTISRVEAEDAATYYCQQWTFNPPTFGGGTRLEIKRTVAAPSVFIFPPSDEQLKSGTASVVCLLNNFYPREAKVQWKVDNALQSGNSQESVTEQDSKDSTYSLSSTLTLSKADYEKHKVYACEVTHQGLSSPVTKSFNRGEC
notes: Chimeric IgG1 made in YB2/0 rat hybridoma cells, with low-fucose N-glycans; also called ublituximab; Ubli
As usually defined, the EC50 is the concentration needed to bring the measured effect to its halfway point. Low values mean higher potency in that assay, high ones lower potency in that assay. By Kd is commonly meant the constant that tells how readily two partners part at equilibrium. A high value points to a looser complex. What is called EC50 (read off the curve) is the midpoint of the concentration-response curve. Take B1: the EC50 turned out to be 0.00202 ng/mL in experiment [1], 2600 ng/mL in experiment [2], 983 ng/mL in [3] and 63 ng/mL in experiment [7]. The Kd amounted to 64.1 nM in experiment [4]; 680 nM in experiment [6]; 23 nM in experiment [8]; 56 nM in experiment [9]; 42 nM in experiment [10]; 20 nM in experiment [11]. Besides, the equilibrium dissociation constant (Kd) was 169 nM in [12], 92 nM in experiment [13] and 158 nM in experiment [14]. In experiment [5], the “ADCC EC50, fold lower than OCREVUS” value was around 25 fold. Also, the “ADCC EC50 (Raji target cells, KILR CD16a effector cells)” value in [15] turned out to be 0.00242 ng/mL. Moreover, the “fold higher affinity than OCREVUS” value in experiment [16] is around 10 fold; in [17], around 15 fold. Moreover, the “EC50 (read off the curve)” value in experiment [18] was around 3000 ng/mL. The “EC50 of ADCC assay Using Primary NK Cells (Raji target cells, LDH release)” value in [19] was found to be 49000 ng/mL. Also, the “CDC EC50 (Jeko-1 cells, rabbit serum complement)” value in experiment [20] worked out at 670 ng/mL.
